Measurements reported in US20210338751A1.

What was measured:
[1] = biological target: GII.10 VLPs (human norovirus genotype GII.10); assay: blocking of GII.10 VLP binding to pig gastric mucin (HBGA)
[2] = biological target: recombinant HuNoV GII.4 P domain (Human Norovirus (HuNoV) GII.4); assay: ELISA on recombinant P domain
[3] = biological target: recombinant HuNoV GII.10 P domain (Human Norovirus (HuNoV) GII.10); assay: ELISA on recombinant P domain
[4] = biological target: recombinant HuNoV GII.3 P domain (Human Norovirus (HuNoV) GII.3); assay: ELISA on recombinant P domain
[5] = biological target: recombinant HuNoV GII.17 P domain (Human Norovirus (HuNoV) GII.17); assay: ELISA on recombinant P domain
[6] = biological target: recombinant HuNoV GI.1 P domain (Human Norovirus (HuNoV) GI.1); assay: ELISA on recombinant HuNoV GI.1 P domain, Spirulina-expressed Ni-NTA purified protein, sample B2, not freeze-dried
[7] = biological target: recombinant HuNoV GI.1 P domain (Human Norovirus (HuNoV) GI.1); assay: ELISA on recombinant HuNoV GI.1 P domain, Spirulina-expressed Ni-NTA purified protein after freeze-drying
[8] = biological target: recombinant HuNoV GI.1 P domain (Human Norovirus (HuNoV) GI.1); assay: ELISA on recombinant HuNoV GI.1 P domain, Spirulina-expressed Ni-NTA purified protein, sample B1, not freeze-dried

B1: SP828 (VHH)
VHH: QVQLQESGGGLVQSGGSLRLSCAASRNINSMHVVGWYRQAPGNQRELVASITDDGSTDYVDSVKGRFTISRDIAENTVYLQMNSLNPEDTAVYYCKGTIVVFTTPMHYWGKGTQVTVSS
IC50 (read off the curve) [1]: 1 µg/mL

B2: Nano26-TxnA (VHH, not shown: large carriers)
VHH: QVQLQESGGGLVQPGGSLRLSCTAPRIIFFMYDVGWYRQAPEKQRELVAQINSDVSTKYADSVKGRFTISRDNAKRTVYLQMNDLKPEDAAVYYCNVRRASADYWGQGTQVTVSS
EC50 [2]: 15.4 nM | EC50 [3]: 1.46 nM | EC50 [4]: 4.46 nM | EC50 [5]: 2.52 nM

B3: Nano94 (no chaperone partner) (VHH)
VHH: QVQLQESGGGLVQAGGSLRLSCAASGRMFSINSMGWYRQAPGKERELVATISEAGTTTYADSVRGRFTIARDNAKNTVYLQMNSLNPEDTAVYYCNAYIQLDSTIWFRAYWGQGTQVTVSS
EC50 [6]: 17.1 nM | EC50 [7]: 25.9 nM | EC50 [8]: 21.2 nM
